*1 amine or outer side, *2 acyl side, *3 side chain or, on linkers, in order; H or OH if unused. Side-chain parts run from the residue outwards. The star is where a group is joined. C18 diacid = O=C(O)CCCCCCCCCCCCCCCCC(=O)*; γGlu = O=C(O)[C@H](CCC(=O)[*:2])N[*:1]; Isovaleryl = CC(C)CC(=O)*; Ahx = NCCCCCC(=O)O
B1: Compound 72 (peptide)
peptide: Isovaleryl-APEK([Ahx-γGlu-C18 diacid])PEADAEPEELQRYYVSLRHYYNWLTRQRY-NH2
SMILES: CC(C)CC(=O)N[C@@H](C)C(=O)N1CCC[C@H]1C(=O)N[C@@H](CCC(=O)O)C(=O)N[C@@H](CCCCNC(=O)CCCCCNC(=O)CC[C@H](NC(=O)CCCCCCCCCCCCCCCCC(=O)O)C(=O)O)C(=O)N1CCC[C@H]1C(=O)N[C@@H](CCC(=O)O)C(=O)N[C@@H](C)C(=O)N[C@@H](CC(=O)O)C(=O)N[C@@H](C)C(=O)N[C@@H](CCC(=O)O)C(=O)N1CCC[C@H]1C(=O)N[C@@H](CCC(=O)O)C(=O)N[C@@H](CCC(=O)O)C(=O)N[C@@H](CC(C)C)C(=O)N[C@@H](CCC(N)=O)C(=O)N[C@@H](CCCNC(=N)N)C(=O)N[C@@H](Cc1ccc(O)cc1)C(=O)N[C@@H](Cc1ccc(O)cc1)C(=O)N[C@H](C(=O)N[C@@H](CO)C(=O)N[C@@H](CC(C)C)C(=O)N[C@@H](CCCNC(=N)N)C(=O)N[C@@H](Cc1c[nH]cn1)C(=O)N[C@@H](Cc1ccc(O)cc1)C(=O)N[C@@H](Cc1ccc(O)cc1)C(=O)N[C@@H](CC(N)=O)C(=O)N[C@@H](Cc1c[nH]c2ccccc12)C(=O)N[C@@H](CC(C)C)C(=O)N[C@H](C(=O)N[C@@H](CCCNC(=N)N)C(=O)N[C@@H](CCC(N)=O)C(=O)N[C@@H](CCCNC(=N)N)C(=O)N[C@@H](Cc1ccc(O)cc1)C(N)=O)[C@@H](C)O)C(C)C
B2: Compound 145 (peptide)
peptide: Isovaleryl-APAK([Ahx-γGlu-C18 diacid])PEEDASPEELQRYYVSLRHYYNWLTRQRY-NH2
SMILES: CC(C)CC(=O)N[C@@H](C)C(=O)N1CCC[C@H]1C(=O)N[C@@H](C)C(=O)N[C@@H](CCCCNC(=O)CCCCCNC(=O)CC[C@H](NC(=O)CCCCCCCCCCCCCCCCC(=O)O)C(=O)O)C(=O)N1CCC[C@H]1C(=O)N[C@@H](CCC(=O)O)C(=O)N[C@@H](CCC(=O)O)C(=O)N[C@@H](CC(=O)O)C(=O)N[C@@H](C)C(=O)N[C@@H](CO)C(=O)N1CCC[C@H]1C(=O)N[C@@H](CCC(=O)O)C(=O)N[C@@H](CCC(=O)O)C(=O)N[C@@H](CC(C)C)C(=O)N[C@@H](CCC(N)=O)C(=O)N[C@@H](CCCNC(=N)N)C(=O)N[C@@H](Cc1ccc(O)cc1)C(=O)N[C@@H](Cc1ccc(O)cc1)C(=O)N[C@H](C(=O)N[C@@H](CO)C(=O)N[C@@H](CC(C)C)C(=O)N[C@@H](CCCNC(=N)N)C(=O)N[C@@H](Cc1c[nH]cn1)C(=O)N[C@@H](Cc1ccc(O)cc1)C(=O)N[C@@H](Cc1ccc(O)cc1)C(=O)N[C@@H](CC(N)=O)C(=O)N[C@@H](Cc1c[nH]c2ccccc12)C(=O)N[C@@H](CC(C)C)C(=O)N[C@H](C(=O)N[C@@H](CCCNC(=N)N)C(=O)N[C@@H](CCC(N)=O)C(=O)N[C@@H](CCCNC(=N)N)C(=O)N[C@@H](Cc1ccc(O)cc1)C(N)=O)[C@@H](C)O)C(C)C
B3: Compound 91 (peptide)
peptide: Isovaleryl-APEK([Ahx-γGlu-C18 diacid])PEEDAEPEELQRYYTSLRHYYHWLTRQRY-NH2
SMILES: CC(C)CC(=O)N[C@@H](C)C(=O)N1CCC[C@H]1C(=O)N[C@@H](CCC(=O)O)C(=O)N[C@@H](CCCCNC(=O)CCCCCNC(=O)CC[C@H](NC(=O)CCCCCCCCCCCCCCCCC(=O)O)C(=O)O)C(=O)N1CCC[C@H]1C(=O)N[C@@H](CCC(=O)O)C(=O)N[C@@H](CCC(=O)O)C(=O)N[C@@H](CC(=O)O)C(=O)N[C@@H](C)C(=O)N[C@@H](CCC(=O)O)C(=O)N1CCC[C@H]1C(=O)N[C@@H](CCC(=O)O)C(=O)N[C@@H](CCC(=O)O)C(=O)N[C@@H](CC(C)C)C(=O)N[C@@H](CCC(N)=O)C(=O)N[C@@H](CCCNC(=N)N)C(=O)N[C@@H](Cc1ccc(O)cc1)C(=O)N[C@@H](Cc1ccc(O)cc1)C(=O)N[C@H](C(=O)N[C@@H](CO)C(=O)N[C@@H](CC(C)C)C(=O)N[C@@H](CCCNC(=N)N)C(=O)N[C@@H](Cc1c[nH]cn1)C(=O)N[C@@H](Cc1ccc(O)cc1)C(=O)N[C@@H](Cc1ccc(O)cc1)C(=O)N[C@@H](Cc1c[nH]cn1)C(=O)N[C@@H](Cc1c[nH]c2ccccc12)C(=O)N[C@@H](CC(C)C)C(=O)N[C@H](C(=O)N[C@@H](CCCNC(=N)N)C(=O)N[C@@H](CCC(N)=O)C(=O)N[C@@H](CCCNC(=N)N)C(=O)N[C@@H](Cc1ccc(O)cc1)C(N)=O)[C@@H](C)O)[C@@H](C)O
B4: Compound 79 (peptide)
peptide: Isovaleryl-APEK([Ahx-γGlu-C18 diacid])PEEDASPEELQRYYVSLRHYYNWLTRQRY-NH2
SMILES: CC(C)CC(=O)N[C@@H](C)C(=O)N1CCC[C@H]1C(=O)N[C@@H](CCC(=O)O)C(=O)N[C@@H](CCCCNC(=O)CCCCCNC(=O)CC[C@H](NC(=O)CCCCCCCCCCCCCCCCC(=O)O)C(=O)O)C(=O)N1CCC[C@H]1C(=O)N[C@@H](CCC(=O)O)C(=O)N[C@@H](CCC(=O)O)C(=O)N[C@@H](CC(=O)O)C(=O)N[C@@H](C)C(=O)N[C@@H](CO)C(=O)N1CCC[C@H]1C(=O)N[C@@H](CCC(=O)O)C(=O)N[C@@H](CCC(=O)O)C(=O)N[C@@H](CC(C)C)C(=O)N[C@@H](CCC(N)=O)C(=O)N[C@@H](CCCNC(=N)N)C(=O)N[C@@H](Cc1ccc(O)cc1)C(=O)N[C@@H](Cc1ccc(O)cc1)C(=O)N[C@H](C(=O)N[C@@H](CO)C(=O)N[C@@H](CC(C)C)C(=O)N[C@@H](CCCNC(=N)N)C(=O)N[C@@H](Cc1c[nH]cn1)C(=O)N[C@@H](Cc1ccc(O)cc1)C(=O)N[C@@H](Cc1ccc(O)cc1)C(=O)N[C@@H](CC(N)=O)C(=O)N[C@@H](Cc1c[nH]c2ccccc12)C(=O)N[C@@H](CC(C)C)C(=O)N[C@H](C(=O)N[C@@H](CCCNC(=N)N)C(=O)N[C@@H](CCC(N)=O)C(=O)N[C@@H](CCCNC(=N)N)C(=O)N[C@@H](Cc1ccc(O)cc1)C(N)=O)[C@@H](C)O)C(C)C
B5: Compound 76 (peptide)
peptide: Isovaleryl-APEK([Ahx-γGlu-C18 diacid])PEEDASPEELQRYYISLRHYYNWLTRQRY-NH2
SMILES: CC[C@H](C)[C@H](NC(=O)[C@H](Cc1ccc(O)cc1)NC(=O)[C@H](Cc1ccc(O)cc1)NC(=O)[C@H](CCCNC(=N)N)NC(=O)[C@H](CCC(N)=O)NC(=O)[C@H](CC(C)C)NC(=O)[C@H](CCC(=O)O)NC(=O)[C@H](CCC(=O)O)NC(=O)[C@@H]1CCCN1C(=O)[C@H](CO)NC(=O)[C@H](C)NC(=O)[C@H](CC(=O)O)NC(=O)[C@H](CCC(=O)O)NC(=O)[C@H](CCC(=O)O)NC(=O)[C@@H]1CCCN1C(=O)[C@H](CCCCNC(=O)CCCCCNC(=O)CC[C@H](NC(=O)CCCCCCCCCCCCCCCCC(=O)O)C(=O)O)NC(=O)[C@H](CCC(=O)O)NC(=O)[C@@H]1CCCN1C(=O)[C@H](C)NC(=O)CC(C)C)C(=O)N[C@@H](CO)C(=O)N[C@@H](CC(C)C)C(=O)N[C@@H](CCCNC(=N)N)C(=O)N[C@@H](Cc1c[nH]cn1)C(=O)N[C@@H](Cc1ccc(O)cc1)C(=O)N[C@@H](Cc1ccc(O)cc1)C(=O)N[C@@H](CC(N)=O)C(=O)N[C@@H](Cc1c[nH]c2ccccc12)C(=O)N[C@@H](CC(C)C)C(=O)N[C@H](C(=O)N[C@@H](CCCNC(=N)N)C(=O)N[C@@H](CCC(N)=O)C(=O)N[C@@H](CCCNC(=N)N)C(=O)N[C@@H](Cc1ccc(O)cc1)C(N)=O)[C@@H](C)O
B6: Compound 146 (peptide)
peptide: Isovaleryl-APEK([Ahx-γGlu-C18 diacid])PEEEATPEELQRYYVSLRHYYNWLTRQRY-NH2
SMILES: CC(C)CC(=O)N[C@@H](C)C(=O)N1CCC[C@H]1C(=O)N[C@@H](CCC(=O)O)C(=O)N[C@@H](CCCCNC(=O)CCCCCNC(=O)CC[C@H](NC(=O)CCCCCCCCCCCCCCCCC(=O)O)C(=O)O)C(=O)N1CCC[C@H]1C(=O)N[C@@H](CCC(=O)O)C(=O)N[C@@H](CCC(=O)O)C(=O)N[C@@H](CCC(=O)O)C(=O)N[C@@H](C)C(=O)N[C@H](C(=O)N1CCC[C@H]1C(=O)N[C@@H](CCC(=O)O)C(=O)N[C@@H](CCC(=O)O)C(=O)N[C@@H](CC(C)C)C(=O)N[C@@H](CCC(N)=O)C(=O)N[C@@H](CCCNC(=N)N)C(=O)N[C@@H](Cc1ccc(O)cc1)C(=O)N[C@@H](Cc1ccc(O)cc1)C(=O)N[C@H](C(=O)N[C@@H](CO)C(=O)N[C@@H](CC(C)C)C(=O)N[C@@H](CCCNC(=N)N)C(=O)N[C@@H](Cc1c[nH]cn1)C(=O)N[C@@H](Cc1ccc(O)cc1)C(=O)N[C@@H](Cc1ccc(O)cc1)C(=O)N[C@@H](CC(N)=O)C(=O)N[C@@H](Cc1c[nH]c2ccccc12)C(=O)N[C@@H](CC(C)C)C(=O)N[C@H](C(=O)N[C@@H](CCCNC(=N)N)C(=O)N[C@@H](CCC(N)=O)C(=O)N[C@@H](CCCNC(=N)N)C(=O)N[C@@H](Cc1ccc(O)cc1)C(N)=O)[C@@H](C)O)C(C)C)[C@@H](C)O

molecular target: T1, human NPY2 receptor (human, UniProt P49146 1-381); experiment: cell-based or functional assay
T1 sequence (looked up): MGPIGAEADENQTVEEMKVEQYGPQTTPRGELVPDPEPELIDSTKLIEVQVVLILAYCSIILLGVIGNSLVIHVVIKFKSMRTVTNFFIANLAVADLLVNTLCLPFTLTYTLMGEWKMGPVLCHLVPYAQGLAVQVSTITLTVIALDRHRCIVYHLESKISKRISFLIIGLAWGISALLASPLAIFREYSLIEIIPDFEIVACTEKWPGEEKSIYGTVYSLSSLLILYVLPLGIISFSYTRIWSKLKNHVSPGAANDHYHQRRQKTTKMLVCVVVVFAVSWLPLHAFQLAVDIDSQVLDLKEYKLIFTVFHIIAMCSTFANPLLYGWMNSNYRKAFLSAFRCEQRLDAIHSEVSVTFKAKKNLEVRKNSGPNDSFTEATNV

Point of comparison: B3, “EC50, HTRF cAMP Gi assay” value 0.219 nM. Against it:
- B1 — within 1.5-fold, 0.197 nM
- B2 — 1.9-fold lower, 0.118 nM
- B4 — 2.9-fold lower, 0.076 nM
- B5 — within 1.5-fold, 0.172 nM
- B6 — 1.7-fold lower, 0.13 nM

molecular target: T2, human NPY5 receptor (human, UniProt Q15761 1-445); experiment: cell-based or functional assay
T2 sequence (looked up): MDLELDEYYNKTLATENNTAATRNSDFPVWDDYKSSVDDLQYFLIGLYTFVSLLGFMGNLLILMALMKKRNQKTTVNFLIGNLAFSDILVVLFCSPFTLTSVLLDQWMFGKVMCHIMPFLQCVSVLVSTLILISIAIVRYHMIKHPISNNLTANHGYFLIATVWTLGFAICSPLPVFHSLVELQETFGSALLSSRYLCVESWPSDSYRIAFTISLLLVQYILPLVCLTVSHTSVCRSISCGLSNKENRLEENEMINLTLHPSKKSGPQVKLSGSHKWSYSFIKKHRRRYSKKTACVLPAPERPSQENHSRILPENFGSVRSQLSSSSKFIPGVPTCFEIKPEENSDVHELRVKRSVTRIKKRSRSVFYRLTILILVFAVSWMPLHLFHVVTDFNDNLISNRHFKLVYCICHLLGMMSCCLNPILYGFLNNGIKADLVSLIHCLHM

Point of comparison: B3, “EC50, HTRF cAMP Gi assay” value 5000 nM. Against it:
- B1 — higher, > 5000 nM
- B2 — higher, > 5000 nM
- B4 — higher, > 5000 nM
- B5 — higher, > 5000 nM
- B6 — higher, > 5000 nM

molecular target: T1, human NPY2 receptor; experiment: RLB: displacement of 125I-PYY(1-36) from hNPY2R membranes

Point of comparison: B4, Ki 1.54 nM. Against it:
- B1 — 1.8-fold higher, 2.79 nM
- B2 — 3.4-fold higher, 5.29 nM
- B3 — 3-fold higher, 4.64 nM
- B5 — 1.7-fold higher, 2.68 nM
- B6 — 5.8-fold higher, 8.93 nM
